For assay [1], the target named is T1, Source 1 VEGF-D, mature dimeric recombinant human VEGF-D (CSIRO) (human, UniProt O43915 89-205).
T1 construct: Whole entry named; also called Source 1 VEGF-D dimer; VEGF-D dimer
T1 sequence: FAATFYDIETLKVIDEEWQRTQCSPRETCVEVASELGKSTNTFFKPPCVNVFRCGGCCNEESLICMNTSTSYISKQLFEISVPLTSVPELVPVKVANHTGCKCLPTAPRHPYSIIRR
The assay is described as follows: SPR Protocol B, KD against that of Ig-1A. The procedure:
(§1) Protocol B: In the second assay format, Protocol B, the orientation of the IgGs and the VEGF-D antigen was reversed relative to Protocol A. The Source 1 VEGF-D dimer was immobilized directly on the chip surface by amine coupling and the murine anti-VEGF-D monoclonal antibody, Ig-1A or IgG variants flowed over this surface as analytes at concentrations of 4 nM, 1.33 nM, and 0.44 nM. This protocol allowed avidity effects to be controlled by reducing the density of dimeric VEGF-D immobilized on the chip and in effect reduce the bivalent binding properties of the system being analyzed.
(§2) All four flow cells on a CM5 chip were activated for 7 min at 25° C. using a mixture of NHS.EDC. Flow cell one was used as an unmodified (activated and blocked) reference against flow cells 2-4. Source 1 VEGF-D dimer was diluted to 1-3 μg/ml into 10 mM sodium acetate, pH 4, and injected over three surfaces for different lengths of time to achieve low ligand densities of 10, 15 and 20 RU to minimize avidity effects of the IgG. All surfaces were blocked for 7 min with ethanolamine (1M, pH 8.2) and pre-conditioned using five 10 s injections of 100 mM H₃PO₄; 1M NaCl. Immobilization steps were carried out at a flow rate of 30 μl/min using HBS-N running buffer.
(§3) All IgG binding experiments were performed at 25° C. using HBS-EP+ running buffer. Analytes (murine reference anti-VEGF-D monoclonal antibody and humanized variants) were injected for 200 s at a flow rate of 70 μl/min and dissociation monitored for 250 s. The antigen surfaces were regenerated with a 10 s pulse of 100 mM H₃PO₄; 1M NaCl. Analyte concentrations used for murine and humanized variants were 4 nM, 1.33 nM, and 0.44 nM. Data was processed using the reference surface and double referencing from blank injections. Binding constants for the IgG/antigen interactions were determined from the three antigen surfaces globally fitted to a 1:1 interaction model. Refractive index parameter was constant (RI=0).

For assay [2], the target named is T1, Source 1 VEGF-D, mature dimeric …. Nature of the assay: SPR Protocol A, KD against that of the murine antibody.
The target is the same in assay [3]. The assay is described as follows: SPR Protocol A, KD against that of Ig-1A.
For assay [4] the target is unchanged. Nature of the assay: cell-based or functional assay.
For assay [5], the target named is T2, Source 2 VEGF-D, purified recombinant human VEGF-D monomer (R&D Systems, Catalog Number 622-VD/CF) (human, UniProt O43915 93-201).
T2 sequence: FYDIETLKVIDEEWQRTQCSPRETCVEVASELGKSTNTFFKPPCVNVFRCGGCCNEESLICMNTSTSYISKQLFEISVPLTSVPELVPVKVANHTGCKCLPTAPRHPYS
Nature of the assay: cell-based or functional assay.

Assay [6] deals with T1, Source 1 VEGF-D, mature dimeric …. Nature of the assay: SPR Protocol A: IgG captured by anti-human Fc, VEGF-D dimer as analyte.
Assay [7] shares this target. Nature of the assay: SPR Protocol B, KD against that of the murine antibody. The procedure: as §1
All four flow cells on a CM5 chip were activated for 7 min at 25° C. using a mixture of NHS.EDC. Flow cell one was used as an unmodified (activated and blocked) reference against flow cells 2-4. […]
All IgG binding experiments were performed at 25° C. using HBS-EP+ running buffer. Analytes (murine reference anti-VEGF-D monoclonal antibody and humanized variants) were injected for 200 s at a flow rate of 70 μl/min and dissociation monitored for 250 s. […] Binding constants for the IgG/antigen interactions were determined from the three antigen surfaces globally fitted to a 1:1 interaction model. […]

For assay [8] the target is unchanged. Nature of the assay: SPR Protocol B: VEGF-D dimer amine-coupled, IgG as analyte. As to the method: as §1, §2, §3
For assay [9] the target is unchanged. Nature of the assay: SPR; row labelled Protocol A (IgG captured by anti-human Fc, VEGF-D dimer as analyte); Protocol A line of Table 6. As to the method: Protocol A: The first assay format, Protocol A, used an assay system where IgGs were captured on a biosensor chip surface using an anti-human IgG (Fc) antibody and the Source 1 VEGF-D dimer run over the chip as the analyte in solution. This ensured that all IgG molecules were presented to the antigen in an active orientation.
The SPR protocol was slightly modified to compensate for the dimeric nature of the VEGF-D. Ig-1A or IgG variants were analyzed using an anti-human capture kit as described for Anti-human IgG (Fc) capture above, except that 1000 RU of the IgG or IgG variant was captured on the anti-human chip surface. […] The kinetics generated using this approach are accurate within the experimental parameters set. This standard assay protocol is best suited to studying 1:1 interactions and thus, may not be ideal for analyzing binding between the IgG variants and the VEGF-D dimer. In light of this, Protocol B was also used.
(In general: SPR reads the build-up and loss of mass on a sensor chip optically.)

For assay [10] the target is unchanged. The assay is described as follows: SPR, labelled Protocol B in this table.
Assay [11] addresses T2, Source 2 VEGF-D, purified recombinant …. Nature of the assay: SPR, IgG captured by anti-human IgG (Fc), Source 2 VEGF-D as analyte.
Assay [12] addresses T1, Source 1 VEGF-D, mature dimeric …. The assay is described as follows: SPR, labelled Protocol A in this table; Protocol B by paragraph 399 and Table 7A, though printed as Protocol A.
Assay [13] has as its target T2, Source 2 VEGF-D, purified recombinant …. Nature of the assay: SPR, IgG captured by anti-human IgG (Fc), Source 2 VEGF-D monomer as analyte.

The results in this text go back to patent US20120093811A1 (published 2012).

Where a chain is given by its changes, count along the chain named.

B1: humanized IgG antibody derived from clone HU75 (antibody, V domains shown)
VH: QVQLVQSGAEVKQPGASVKVSCKASGYTFTGYNMYWVRQAPGQGLEWMGYIDPYNGDTTYNQKFKGRVTMTTDTSTSTAYMKLRSLRSDDTAVYYCARTSYYGGMDYWGRGTLVTVAS
VL: DIVMTQTPLSGPVTLGQPASISCRSSQSLVHSNGNTYLHWLQQRPGQPPRLLIYKVSNRFSGVPDRFSGSGAGTDFTLKISRVEAEDVGVYYCSQSTHVPRTFGRGTKLEIKR
notes: IgG
As usually defined, the Kd is the equilibrium constant for the complex coming apart. Usually koff stands for the first-order rate constant of dissociation. A word on the kon: it is a measure of how fast the partners come together. Regarding B1, the results for the “Fold-improvement with respect to Ig-1A” value in [1] and in [3] were 4.4 fold and 5.5 fold, respectively. In addition, the “fold improvement over the original murine anti-VEGF-D monoclonal antibody” value in assay [2] came out at 23.6 fold; in assay [7] it was 11.5 fold. Also, the “rank in the VEGFR-3-Ba/F3 bioassay” value in assay [4] amounted to 7 rank; in assay [5] it was 5 rank. The equilibrium dissociation constant (Kd) in assay [6] worked out at 0.127 nM; in assay [8] it was 0.4 nM. Besides, the koff in [6] came out at 5.8e-05 s⁻¹; in [8] it was 0.0019 s⁻¹. Also, the kon is 460000 M⁻¹ s⁻¹ in assay [6] and 4.8e+06 M⁻¹ s⁻¹ in assay [8].

B2: Ig-1A, humanized IgG reformatted from scFv 1A (antibody, V domains shown)
VH: B1 VH with K82E
VL: B1 VL with G11S, R105Q
notes: IgG made in mammalian cells; also called humanized Ig-1A
As to B2, the koff in [9] was 0.00059 s⁻¹; in [11], 0.00901 s⁻¹; in assay [6], 0.00049 s⁻¹; in assay [13] it was 0.00678 s⁻¹; in assay [8], 0.0013 s⁻¹. Also, the association rate constant (kon) in [9] was determined as 680000 M⁻¹ s⁻¹; in [11] it was 494000 M⁻¹ s⁻¹; in assay [6], 710000 M⁻¹ s⁻¹; in assay [13], 730000 M⁻¹ s⁻¹; in assay [8], 720000 M⁻¹ s⁻¹. For the same molecule, the dissociation constant (Kd) in assay [10] turned out to be 0.7 nM; in assay [11], 16.1 nM; in assay [12], 0.7 nM; in assay [6], 0.696 nM; in assay [13], 9.2 nM; in assay [8], 1.8 nM.
